How the values were obtained:
Assay in all cases: flow cytometry on cells
[1] = target: T1, Bak(72–89)–eCPX fusion displayed on E. coli (UniProt Q16611 72-89)
T1 chain (looked up): GQVGRQLAIIGDDINRRY

[2] = target: T2, Bak(72–89) R88A–eCPX fusion displayed on E. coli (UniProt Q16611 72-89, R88A)
T2 chain (looked up): GQVGRQLAIIGDDINRAY

[3] = target: T3, Bak(72–89) R88E–eCPX fusion displayed on E. coli (UniProt Q16611 72-89, R88E)
T3 chain (looked up): GQVGRQLAIIGDDINREY

[4] = target: T4, Bak(72–89) R88Q–eCPX fusion displayed on E. coli (UniProt Q16611 72-89, R88Q)
T4 chain (looked up): GQVGRQLAIIGDDINRQY

[5] = target: T5, Bak(72–89) Y89A–eCPX fusion displayed on E. coli (UniProt Q16611 72-89, Y89A)
T5 chain (looked up): GQVGRQLAIIGDDINRRA

[6] = target: T6, Bak(72–88)–eCPX fusion displayed on E. coli (UniProt Q16611 72-88)
T6 chain (looked up): GQVGRQLAIIGDDINRR

[7] = target: T7, Bak(72–87)–eCPX fusion displayed on E. coli (UniProt Q16611 72-87)
T7 chain (looked up): GQVGRQLAIIGDDINR

median fluorescence [1]: 19.1 AU | median fluorescence [2]: 24.6 AU | median fluorescence [3]: 8.4 AU | median fluorescence [4]: 11.1 AU | median fluorescence [5]: 11.9 AU | median fluorescence [6]: 8.3 AU | median fluorescence [7]: 2.1 AU
B1: biotinylated Bcl-2 chimera (isoform 2): residues 1–34 of Bcl-2, residues 35–50 of Bcl-xL, residues 92–207 of Bcl-2 (other, UniProt P10415 1-34, looked up)
chain: MAHAGRTGYDNREIVMKYIHYKLSQRGYEWDAGDTEAPEGTESEMETPSAVVHLTLRQAGDDFSRRYRRDFAEMSSQLHLTPFTARGRFATVVEELFRDGVNWGRIVAFFEFGGVMCVESVNREMSPLVDNIALWMTEYLNRHLHTWIQDNGGWDAFVELYGPSMR
modifications: biotin on the lysine of the biotin acceptor peptide (…)
